Measurements reported in patent US20240133870A1, “COMBINED TREATMENT FOR CANCER” (Yeda Research and Development Co. Ltd., priority 2021, published 2024).

Key:
Assay type in all cases: cell-based, human
[1] = test system: H1975 xenografts; assay: EVOC viability; conditions: afatinib 3-4 μM
Experimental: Vehicle—DMSO, FGFRi—AZD4547 2-4 μM, INSRi—linsitinib 2 μM, METi—crizotinib 2-4 μM, EGFRi—afatinib 3-4 μM. Each black dot in a given treatment condition represents a different tumor. P-values were calculated by two-sided t-test. ** P<0.01, * P<0.05. Error bars represent standard error. […] Viability percentage is given per treatment combination. Scale bar represents 50 μm. […] Error bars represent standard error. […] EGFRi—gefitinib 1.6 μM, FGFRi—AZD4547 0.2 μM. The percentage of viable cancer cells was morphologically assessed on H&E stained sections by a pathologist as the ratio between viable cancer cell area and total cancer area (viable cancer cells plus necrotic cancer cells). […] Viability score was calculated based on the entire field of view. […]
Immunohistochemistry of EVOC tissues: To assess response therapy, 4 μm FFPE tissue slices were stained with H&E, or with specific antibodies: anti-pERK (Cell Signaling, #4370) followed by HRP conjugated secondary antibody (anti-Rabbit HRP, ZUC032, ZytoChem) and DAB staining (DAB substrate kit, DAB057, ZytoChem). […] All slides were scanned using the Pannoramic SCAN II (3[sequence]) and analyzed by a pathologist. The percentage of viable cancer cells was morphologically assessed on H&E stained sections by a pathologist as the ratio between viable cancer cell area and total cancer area (viable cancer cells plus necrotic cancer cells).

[2] = test system: HT-29 orthotopic xenograft colorectal tumors; assay: EVOC of orthotopic colon tumors, pERK and H&E/BrDu; conditions: lapatinib 4 μM combined with BRAFi (vemurafenib 4 μM)
From the text: 500-700 μmm^3 tumors were resected, sliced, and cultured ex-vivo. Following 4 days of drug treatment, slices were fixed and embedded in paraffin blocks. FFPE slices were stained by H&E, and the percentage of viable cancer cells was morphologically assessed on H&E stained sections by a pathologist as the ratio between viable cancer cell area and total cancer area (viable cancer cells plus necrotic cancer cells). […] Each black dot in a given treatment condition represents a different tumor. P-values were calculated by two-sided t-test. *** P<0.001 ** P<0.01. Error bars represent standard error. […] Names of the six secreted factors with the highest rScore are shown. Factors related to TNF pathways are marked in gray. Results represent the average of at least two experiments. […] Cohort size pre-treatment: 5-6, P-values of the difference on the last day of experiment were calculated by one-sided Mann-Whitney test. * P<0.05. […] Viability percentage was calculated based on the entire field of view per treatment combination. […] FFPE slices were stained by pERK and pERK activity was assessed by a pathologist. […]
For the ex-vivo experiments EVOCs from immunocompromised mice bearing human tumors were generated, as further described hereinbelow. For the in-vivo validation experiments, mice bearing subcutaneous tumors were used; and response was measured by evaluating tumor volume. […]

[3] = test system: pERK in G361 cell line; assay: In-cell western blot of pERK; conditions: G361 cells treated with the BRAF inhibitor (vemurafenib 2 μM and trametinib 1 nM)
Experimental: PLX4720—BRAFi, 2 μM; PD184352—MEKi, 1 μM, EMAPII—50 ng/ml. P-value of the difference between GFP(drug)/GFP(no-treatment) and GFP(drug+EMAPII)/GFP(no-treatment), at day 7, was calculated by two-sided t-test. ** p<0.01, *** p<0.001. Average rScore (+/−SE) was calculated from at least four different experiments. […] A total of 69 experiments are shown. […] The effect of FGF2 (10 ng/ml), EMAPII (10 ng/ml) or AIMP1 (10 ng/ml) on G361 μmelanoma cells treated with vemurafenib (2 μM) was measured with or without the FGFR inhibitor PD17307 (0.5 μM). Data represent an average of 4 to 8 experiments. P-value was calculated by two-sided t-test. *** p<0.001. Error bars represent standard error. […] P-values were calculated by two-sided t-test relative to luciferase. * p<0.05, Q-value=0.1. […] P-value was calculated by two-sided t-test. *** p<0.001.
In-cell western blot—To validate that EMAPII mediates its effect on resistance to BRAF inhibition via the FGF receptors (FIG. 2G), the melanoma BRAF mutated cell line G361 was seeded in a 384-wells plate at a concentration of 16,000 cells per well. […] Finally, the plate was scanned with Odyssey (Li-cor) using microplate settings (169 μm, […]), and fluorescence intensity was quantified and normalized to the DRAQ level, and then to no drug control (DMSO).

[4] = test system: BRAF (V600E) melanoma cell lines; assay: High-throughput secretome screen of GFP-labeled cells (rScore, bScore, ranks); conditions: G361 and SK-MEL-5; PLX4720 2 μM, PD184352 1 μM, EMAPII 50 ng/ml
Experimental: Cell lines—All cell lines (Table 1 hereinbelow) were cultured in DMEM supplemented with 100 units/ml Penicillin and Streptomycin, 2 μmM Glutamine, 1 μmM Pyruvate and 10% FCS, and maintained in a humidified incubator at 37° C. and 5% CO2. Cells were routinely tested for Mycoplasma contamination by PCR. To generate stable cell lines constitutively expressing GFP, cells were infected with lentivirus bearing plasmid pLEX_TRC206 and sorted by FACS to enrich for GFP positive population. For the in-vitro experiments, human cancer cell lines which constitutively expressed GFP were treated with various cytotoxic and targeted drugs (see Table 1 hereinbelow); and the effect of different secreted factors (Table 2 hereinbelow) on the innate resistance to a drug based on the cells' GFP level was determined.
High throughput in-vitro screens—For high-throughput screens or drug dose curves, cells were counted by Vi-Cell XR (Beckman coulter). Cells were seeded on 384 wells plates (Corning, 3712) using the EL406 washer dispenser (BioTek). Liquid handling of medium and drugs was effected by CyBi (WellFlex vario, CyBio). GFP fluorescence of cells was measured at 477/517 nm (excitation/emission) using Cytation3 (BioTek). Due to fluorescence reading bias at plate margins and corners, these margins were discarded for analysis.
High-throughput secretome screens—To screen for the effect of secreted factors on the response of cell lines to different drugs, the following seven-days procedure was performed. On day 0, GFP expressing cells were seeded at 1500-2000 cells per well on 384-wells plates (Corning, 3712), depending on the cell line's proliferation rate. Each plate was seeded with one cell line. At day 1, each plate was treated with the secretome library (Table 2 hereinabove), one well per factor. Immediately afterwards, each plate was treated either with a drug (Table 1 hereinabove) at the EC90 concentration or with DMSO control. The CyBi liquid handler was used to treat each plate with a drug and the secretome library as well as to replace the medium, drug and secreted factors following 3 days of incubation (day 4). Cell fluorescence was read at days 1, 4 and 7 by Cytation3, and for some of the experiments at day 6 as well. Wells of interest were imaged at day 7 using the Operetta (PerkinElmer).
(2) Based on observations, the plate area spanning rows 4-13 and columns 4-21 was hardly affected by plate margins biases. This area is referred to herein as plate core. To control for row specific and column specific biases, plate outliers (Zscore>4 or Zscore<−4) and edges were masked. Next, to capture row and column (col) biases for the i-th row and the j-th column, the bias factor was calculated:
Upon QC completion, 199 experiment plates and 79 control (DMSO) plates were left for further analysis. • 4—Scoring methods-A GFP value for wells without secretome factors was obtained by averaging over the plate internal control wells. Those wells contained the solvents used in the secretome library. pScore: The effect of the secreted factors on proliferation under DMSO was evaluated using pScore (proliferation score). Values were given in percent units.
rScore: The effect of the secreted factors on resistance to anti-cancer drugs was evaluated using rScore (rescue score). rScore was assigned to a given factor under two conditions: • 1. drug effect was >30% (residual drug growth<0.7) • 2. proliferation ratio between factor treated and untreated cells in the presence of drug was higher than one:
rSscore=S−S*residual drug growth
Based on manual inspection of the rScore distribution across the data, the threshold for a potential effect on drug resistance was set to 0.2 (FIGS. 8A-D).
(*) Negative values were considered as zero. […] Groups with less than 4 experiments were discarded, finally resulting in 13 groups of experiments (FIG. 1E). […]

CN(C)C/C=C/C(=O)Nc1cc2c(Nc3ccc(F)c(Cl)c3)ncnc2cc1O[C@H]1CCOC1 [afatinib]
decrease of viability of cancer cells, on average [1]: 28%

CS(=O)(=O)CCNCc1ccc(-c2ccc3ncnc(Nc4ccc(OCc5cccc(F)c5)c(Cl)c4)c3c2)o1 [lapatinib]
downstream pERK signaling [2]: completely blocked pERK signaling

B1: AIMP1: aminoacyl tRNA synthetase complex interacting multifunctional protein 1 (protein, UniProt Q12904 2-312, looked up)
Aminoacyl tRNA synthase …: ANNDAVLKRLEQKGAEADQIIEYLKQQVSLLKEKAILQATLREEKKLRVENAKLKKEIEELKQELIQAEIQNGVKQIPFPSGTPLHANSMVSENVIQSTAVTTVSSGTKEQIKGGTGDEKKAKEKIEKKGEKKEKKQQSIAGSADSKPIDVSRLDLRIGCIITARKHPDADSLYVEEVDVGEIAPRTVVSGLVNHVPLEQMQNRMVILLCNLKPAKMRGVLSQAMVMCASSPEKIEILAPPNGSVPGDRITFDAFPGEPDKELNPKKKIWEQIQPDLHTNDECVATYKGVPFEVKGKGVCRAQTMSNSGIK
pERK reactivation [3]: partially reactivate pERK

B2: EMAPII: endothelial-monocyte activating polypeptide II, C-terminus variant of AIMP1 (protein, UniProt Q12904 147-312, looked up)
Endothelial …: SKPIDVSRLDLRIGCIITARKHPDADSLYVEEVDVGEIAPRTVVSGLVNHVPLEQMQNRMVILLCNLKPAKMRGVLSQAMVMCASSPEKIEILAPPNGSVPGDRITFDAFPGEPDKELNPKKKIWEQIQPDLHTNDECVATYKGVPFEVKGKGVCRAQTMSNSGIK
modifications: Endothelial monocyte-activating polypeptide 2
pERK reactivation [3]: partially reactivate pERK
effect on sensitivity to BRAF/MEK inhibition [4]: conferred resistance to BRAF and MEK inhibition
